Laboratory results from paper PMC3548793, “CK2 Phosphorylates Sec31 and Regulates ER-To-Golgi Trafficking” (PLoS ONE, 2013).
Residue numbers refer to the chain shown, from its start. Numbers in names are those of the source. Values belong to the binder of their own block, whether it stands above or below them.

Target: T1, GFP-tagged Sec23 (UniProt Q15436 1-765)
T1 construct: Sec23a; plasmid YFP-Sec23a was a gift; The results and legends call it GFP-tagged Sec23; the only Sec23 plasmid named in the methods is YFP-Sec23a; also called GFP-Sec23; YFP-Sec23a; source: HEK293, transfected, in lysate
Experiment: co-IP; HEK293 cells co-transfected with FLAG-tagged Sec31 (WT or mutants) and GFP-tagged Sec23 or GFP-Sec13; GFP-tagged protein immunoprecipitated with anti-GFP beads, blot with anti-FLAG; 10 mM HEPES-KOH pH 7.4, 100 mM KCl, 0.1 mM DTT, 2.5 mM MgCl2, 1% Triton X-100, 30 min at 4°C; in Figure 6 cells transfected two days before with or without siRNA1 to CK2 alpha1
Conditions: partners not purified

T1 sequence (Q15436 whole entry): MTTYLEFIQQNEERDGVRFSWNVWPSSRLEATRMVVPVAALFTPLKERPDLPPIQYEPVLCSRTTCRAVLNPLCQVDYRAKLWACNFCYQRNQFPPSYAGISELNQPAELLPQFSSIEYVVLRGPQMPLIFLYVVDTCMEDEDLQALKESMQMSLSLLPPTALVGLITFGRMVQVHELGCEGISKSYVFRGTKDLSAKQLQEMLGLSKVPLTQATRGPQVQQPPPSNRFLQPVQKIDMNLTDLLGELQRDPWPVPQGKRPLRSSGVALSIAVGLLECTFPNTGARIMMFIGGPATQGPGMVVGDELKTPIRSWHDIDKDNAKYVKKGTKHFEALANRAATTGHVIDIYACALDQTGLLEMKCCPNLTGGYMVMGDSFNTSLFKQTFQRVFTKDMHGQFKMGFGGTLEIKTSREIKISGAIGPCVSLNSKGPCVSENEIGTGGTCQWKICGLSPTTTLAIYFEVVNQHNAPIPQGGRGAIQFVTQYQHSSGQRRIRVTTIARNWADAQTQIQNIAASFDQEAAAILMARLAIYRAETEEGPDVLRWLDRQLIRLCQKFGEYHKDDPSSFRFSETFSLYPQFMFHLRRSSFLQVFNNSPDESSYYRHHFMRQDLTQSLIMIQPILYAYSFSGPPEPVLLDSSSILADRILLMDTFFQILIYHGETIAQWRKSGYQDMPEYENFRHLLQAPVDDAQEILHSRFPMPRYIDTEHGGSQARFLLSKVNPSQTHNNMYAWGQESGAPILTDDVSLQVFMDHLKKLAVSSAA

fold change of Sec31 co-precipitated with Sec23, CK2 depleted by siRNA1 against not depleted: ~3 fold
B1: FLAG-tagged wild type (WT) Sec31 (natural protein, human, UniProt O94979 1-1220, looked up)
chain: MKLKEVDRTAMQAWSPAQNHPIYLATGTSAQQLDATFSTNASLEIFELDLSDPSLDMKSCATFSSSHRYHKLIWGPYKMDSKGDVSGVLIAGGENGNIILYDPSKIIAGDKEVVIAQNDKHTGPVRALDVNIFQTNLVASGANESEIYIWDLNNFATPMTPGAKTQPPEDISCIAWNRQVQHILASASPSGRATVWDLRKNEPIIKVSDHSNRMHCSGLAWHPDVATQMVLASEDDRLPVIQMWDLRFASSPLRVLENHARGILAIAWSMADPELLLSCGKDAKILCSNPNTGEVLYELPTNTQWCFDIQWCPRNPAVLSAASFDGRISVYSIMGGSTDGLRQKQVDKLSSSFGNLDPFGTGQPLPPLQIPQQTAQHSIVLPLKKPPKWIRRPVGASFSFGGKLVTFENVRMPSHQGAEQQQQQHHVFISQVVTEKEFLSRSDQLQQAVQSQGFINYCQKKIDASQTEFEKNVWSFLKVNFEDDSRGKYLELLGYRKEDLGKKIALALNKVDGANVALKDSDQVAQSDGEESPAAEEQLLGEHIKEEKEESEFLPSSGGTFNISVSGDIDGLITQALLTGNFESAVDLCLHDNRMADAIILAIAGGQELLARTQKKYFAKSQSKITRLITAVVMKNWKEIVESCDLKNWREALAAVLTYAKPDEFSALCDLLGTRLENEGDSLLQTQACLCYICAGNVEKLVACWTKAQDGSHPLSLQDLIEKVVILRKAVQLTQAMDTSTVGVLLAAKMSQYANLLAAQGSIAAALAFLPDNTNQPNIMQLRDRLCRAQGEPVAGHESPKIPYEKQQLPKGRPGPVAGHHQMPRVQTQQYYPHGENPPPPGFIMHGNVNPNAAGQLPTSPGHMHTQVPPYPQPQPYQPAQPYPFGTGGSAMYRPQQPVAPPTSNAYPNTPYISSASSYTGQSQLYAAQHQASSPTSSPATSFPPPPSSGASFQHGGPGAPPSSSAYALPPGTTGTLPAASELPASQRTGPQNGWNDPPALNRVPKKKKMPENFMPPVPITSPIMNPLGDPQSQMLQQQPSAPVPLSSQSSFPQPHLPGGQPFHGVQQPLGQTGMPPSFSKPNIEGAPGAPIGNTFQHVQSLPTKKITKKPIPDEHLILKTTFEDLIQRCLSSATDPQTKRKLDDASKRLEFLYDKLREQTLSPTITSGLHNIARSIETRNYSEGLTMHTHIVSTSNFSETSAFMPVLKVVLTQANKLGV
notes: Sec31a, human, cDNA clone KIAA 0905 from Kazusa DNA Research Institute, subcloned into p3×FLAG-CMV; In the cells partly phosphorylated (S527, S799, S1163, T1165 found by mass spectrometry on endogenous Sec31); also called FLAG-Sec31; human Sec31a; source: HEK293, transfected, in lysate

fold change of Sec31 co-precipitated with Sec23 against wild type: 3 fold
B2: FLAG-tagged Sec31 S527A/S799A (natural protein, human, UniProt O94979 1-1220, looked up)
chain: B1 chain with S527A, S799A
notes: Sec31a, human, cDNA clone KIAA 0905, point mutations by QuikChange; also called S527/S799; source: HEK293, transfected, in lysate
